Experimental data: article PMC10786891, “Massively parallel profiling of RNA-targeting CRISPR-Cas13d”

T1: EsCas13d, nuclease-dead (Eubacterium siraeum, UniProt B0MS50, R295A;H300A;R849A;H854A)
T1 sequence: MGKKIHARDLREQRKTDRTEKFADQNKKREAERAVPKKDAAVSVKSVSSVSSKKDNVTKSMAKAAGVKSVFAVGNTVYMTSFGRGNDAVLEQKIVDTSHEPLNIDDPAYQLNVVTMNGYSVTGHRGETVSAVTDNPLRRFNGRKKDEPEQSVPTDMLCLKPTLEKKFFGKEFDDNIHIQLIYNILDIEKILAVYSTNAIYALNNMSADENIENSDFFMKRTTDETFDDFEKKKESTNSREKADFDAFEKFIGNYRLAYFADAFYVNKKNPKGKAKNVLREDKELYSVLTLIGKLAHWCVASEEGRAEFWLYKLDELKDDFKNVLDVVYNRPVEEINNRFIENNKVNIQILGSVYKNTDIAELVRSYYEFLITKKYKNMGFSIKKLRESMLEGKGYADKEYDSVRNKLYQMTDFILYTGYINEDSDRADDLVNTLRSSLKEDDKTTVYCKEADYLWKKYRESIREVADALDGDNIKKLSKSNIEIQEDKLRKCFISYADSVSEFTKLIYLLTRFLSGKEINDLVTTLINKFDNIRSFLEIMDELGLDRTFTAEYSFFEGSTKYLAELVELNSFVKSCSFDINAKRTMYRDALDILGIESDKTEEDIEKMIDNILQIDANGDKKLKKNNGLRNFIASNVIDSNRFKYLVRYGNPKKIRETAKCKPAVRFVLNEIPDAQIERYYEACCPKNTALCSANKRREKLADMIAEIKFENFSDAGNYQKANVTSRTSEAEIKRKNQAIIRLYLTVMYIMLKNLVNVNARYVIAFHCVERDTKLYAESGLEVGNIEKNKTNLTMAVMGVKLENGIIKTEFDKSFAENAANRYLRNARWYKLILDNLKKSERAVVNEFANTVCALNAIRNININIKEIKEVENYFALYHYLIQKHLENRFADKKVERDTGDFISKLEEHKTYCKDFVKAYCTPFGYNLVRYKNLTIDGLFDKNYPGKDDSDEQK

B1: target 1 insC 3' of 10,insG 3' of 9 (mixed)
RNA 1: CACCCGUGCAAAAAUGCAGGGGUCUAAAACUGAGCGGAUAACCUCUCUAUGG
RNA 2: GGGAAUGGAUCCACAUCUACGAAUUCGUACCAUAGAGAGGUUCAGUCCGCUCACCGAGAUCGGAAGAGCACACGU
B2: target 1 insG 3' of 3,insG 3' of 2 (mixed)
RNA 1: CACCCGUGCAAAAAUGCAGGGGUCUAAAACUGAGCGGAUAACCUCUCUAUGG
RNA 2: GGGAAUGGAUCCACAUCUACGAAUUCGUACCAUAGAGAGGUUAUCCGCUGCGACCGAGAUCGGAAGAGCACACGU
B3: target 1 insU 3' of 17,insC 3' of 16 (mixed)
RNA 1: CACCCGUGCAAAAAUGCAGGGGUCUAAAACUGAGCGGAUAACCUCUCUAUGG
RNA 2: GGGAAUGGAUCCACAUCUACGAAUUCGUACCAUAGUACGAGGUUAUCCGCUCACCGAGAUCGGAAGAGCACACGU
B4: target 1 U3G,A14G (mixed)
RNA 1: CACCCGUGCAAAAAUGCAGGGGUCUAAAACUGAGCGGAUAACCUCUCUAUGG
RNA 2: GGGAAUGGAUCCACAUCUACGAAUUCGUACCAUAGAGGGGUUAUCCGCGCACCGAGAUCGGAAGAGCACACGU
B5: target 1 C2A,G13U (mixed)
RNA 1: CACCCGUGCAAAAAUGCAGGGGUCUAAAACUGAGCGGAUAACCUCUCUAUGG
RNA 2: GGGAAUGGAUCCACAUCUACGAAUUCGUACCAUAGAGAUGUUAUCCGCUAACCGAGAUCGGAAGAGCACACGU
B6: target 1 insC 3' of 14,insG 3' of 14 (mixed)
RNA 1: CACCCGUGCAAAAAUGCAGGGGUCUAAAACUGAGCGGAUAACCUCUCUAUGG
RNA 2: GGGAAUGGAUCCACAUCUACGAAUUCGUACCAUAGAGACGGGUUAUCCGCUCACCGAGAUCGGAAGAGCACACGU
B7: target 1 insU 3' of 20,insC 3' of 18 (mixed)
RNA 1: CACCCGUGCAAAAAUGCAGGGGUCUAAAACUGAGCGGAUAACCUCUCUAUGG
RNA 2: GGGAAUGGAUCCACAUCUACGAAUUCGUACCAUUACGAGAGGUUAUCCGCUCACCGAGAUCGGAAGAGCACACGU
B8: target 1 U10A,U11A (mixed)
RNA 1: CACCCGUGCAAAAAUGCAGGGGUCUAAAACUGAGCGGAUAACCUCUCUAUGG
RNA 2: GGGAAUGGAUCCACAUCUACGAAUUCGUACCAUAGAGAGGAAAUCCGCUCACCGAGAUCGGAAGAGCACACGU
B9: target 1 U3G,A20U (mixed)
RNA 1: CACCCGUGCAAAAAUGCAGGGGUCUAAAACUGAGCGGAUAACCUCUCUAUGG
RNA 2: GGGAAUGGAUCCACAUCUACGAAUUCGUACCUUAGAGAGGUUAUCCGCGCACCGAGAUCGGAAGAGCACACGU
B10: target 1 C2G,U3C (mixed)
RNA 1: CACCCGUGCAAAAAUGCAGGGGUCUAAAACUGAGCGGAUAACCUCUCUAUGG
RNA 2: GGGAAUGGAUCCACAUCUACGAAUUCGUACCAUAGAGAGGUUAUCCGCCGACCGAGAUCGGAAGAGCACACGU
B11: target 1 insU 3' of 9,insU 3' of 2 (mixed)
RNA 1: CACCCGUGCAAAAAUGCAGGGGUCUAAAACUGAGCGGAUAACCUCUCUAUGG
RNA 2: GGGAAUGGAUCCACAUCUACGAAUUCGUACCAUAGAGAGGUUAUUCCGCUCUACCGAGAUCGGAAGAGCACACGU
B12: target 1 insC 3' of 18,insU 3' of 5 (mixed)
RNA 1: CACCCGUGCAAAAAUGCAGGGGUCUAAAACUGAGCGGAUAACCUCUCUAUGG
RNA 2: GGGAAUGGAUCCACAUCUACGAAUUCGUACCAUACGAGAGGUUAUCCGUCUCACCGAGAUCGGAAGAGCACACGU
B13: target 1 insG 3' of 8,insC 3' of 3 (mixed)
RNA 1: CACCCGUGCAAAAAUGCAGGGGUCUAAAACUGAGCGGAUAACCUCUCUAUGG
RNA 2: GGGAAUGGAUCCACAUCUACGAAUUCGUACCAUAGAGAGGUUAUGCCGCUCCACCGAGAUCGGAAGAGCACACGU
B14: target 1 G5C,G17A (mixed)
RNA 1: CACCCGUGCAAAAAUGCAGGGGUCUAAAACUGAGCGGAUAACCUCUCUAUGG
RNA 2: GGGAAUGGAUCCACAUCUACGAAUUCGUACCAUAAAGAGGUUAUCCCCUCACCGAGAUCGGAAGAGCACACGU
B15: target 1 insC 3' of 16,insC 3' of 1 (mixed)
RNA 1: CACCCGUGCAAAAAUGCAGGGGUCUAAAACUGAGCGGAUAACCUCUCUAUGG
RNA 2: GGGAAUGGAUCCACAUCUACGAAUUCGUACCAUAGACGAGGUUAUCCGCUCACCCGAGAUCGGAAGAGCACACGU
B16: target 1 G17U,U19G (mixed)
RNA 1: CACCCGUGCAAAAAUGCAGGGGUCUAAAACUGAGCGGAUAACCUCUCUAUGG
RNA 2: GGGAAUGGAUCCACAUCUACGAAUUCGUACCAGAUAGAGGUUAUCCGCUCACCGAGAUCGGAAGAGCACACGU
B17: target 1 C6A,G17A (mixed)
RNA 1: CACCCGUGCAAAAAUGCAGGGGUCUAAAACUGAGCGGAUAACCUCUCUAUGG
RNA 2: GGGAAUGGAUCCACAUCUACGAAUUCGUACCAUAAAGAGGUUAUCAGCUCACCGAGAUCGGAAGAGCACACGU
B18: target 1 C4G,A9G (mixed)
RNA 1: CACCCGUGCAAAAAUGCAGGGGUCUAAAACUGAGCGGAUAACCUCUCUAUGG
RNA 2: GGGAAUGGAUCCACAUCUACGAAUUCGUACCAUAGAGAGGUUGUCCGGUCACCGAGAUCGGAAGAGCACACGU
B19: target 1 C2U,A20C (mixed)
RNA 1: CACCCGUGCAAAAAUGCAGGGGUCUAAAACUGAGCGGAUAACCUCUCUAUGG
RNA 2: GGGAAUGGAUCCACAUCUACGAAUUCGUACCCUAGAGAGGUUAUCCGCUUACCGAGAUCGGAAGAGCACACGU
B20: target 1 C4G,C21A (mixed)
RNA 1: CACCCGUGCAAAAAUGCAGGGGUCUAAAACUGAGCGGAUAACCUCUCUAUGG
RNA 2: GGGAAUGGAUCCACAUCUACGAAUUCGUACAAUAGAGAGGUUAUCCGGUCACCGAGAUCGGAAGAGCACACGU
B21: target 1 insU 3' of 18,insC 3' of 15 (mixed)
RNA 1: CACCCGUGCAAAAAUGCAGGGGUCUAAAACUGAGCGGAUAACCUCUCUAUGG
RNA 2: GGGAAUGGAUCCACAUCUACGAAUUCGUACCAUAUGAGCAGGUUAUCCGCUCACCGAGAUCGGAAGAGCACACGU
B22: target 1 C7U,G12U (mixed)
RNA 1: CACCCGUGCAAAAAUGCAGGGGUCUAAAACUGAGCGGAUAACCUCUCUAUGG
RNA 2: GGGAAUGGAUCCACAUCUACGAAUUCGUACCAUAGAGAGUUUAUUCGCUCACCGAGAUCGGAAGAGCACACGU
B23: target 1 A1U,C4A (mixed)
RNA 1: CACCCGUGCAAAAAUGCAGGGGUCUAAAACUGAGCGGAUAACCUCUCUAUGG
RNA 2: GGGAAUGGAUCCACAUCUACGAAUUCGUACCAUAGAGAGGUUAUCCGAUCUCCGAGAUCGGAAGAGCACACGU
B24: target 1 U3G,G5U (mixed)
RNA 1: CACCCGUGCAAAAAUGCAGGGGUCUAAAACUGAGCGGAUAACCUCUCUAUGG
RNA 2: GGGAAUGGAUCCACAUCUACGAAUUCGUACCAUAGAGAGGUUAUCCUCGCACCGAGAUCGGAAGAGCACACGU
B25: target 1 complement block 1-7 (mixed)
RNA 1: CACCCGUGCAAAAAUGCAGGGGUCUAAAACUGAGCGGAUAACCUCUCUAUGG
RNA 2: GGGAAUGGAUCCACAUCUACGAAUUCGUACCAUAGAGAGGUUAUGGCGAGUCCGAGAUCGGAAGAGCACACGU
B26: target 1 insC 3' of 15,insA 3' of 10 (mixed)
RNA 1: CACCCGUGCAAAAAUGCAGGGGUCUAAAACUGAGCGGAUAACCUCUCUAUGG
RNA 2: GGGAAUGGAUCCACAUCUACGAAUUCGUACCAUAGAGCAGGUUAAUCCGCUCACCGAGAUCGGAAGAGCACACGU
B27: target 1 C7A,C22G (mixed)
RNA 1: CACCCGUGCAAAAAUGCAGGGGUCUAAAACUGAGCGGAUAACCUCUCUAUGG
RNA 2: GGGAAUGGAUCCACAUCUACGAAUUCGUAGCAUAGAGAGGUUAUACGCUCACCGAGAUCGGAAGAGCACACGU
B28: target 1 G5C,C6G (mixed)
RNA 1: CACCCGUGCAAAAAUGCAGGGGUCUAAAACUGAGCGGAUAACCUCUCUAUGG
RNA 2: GGGAAUGGAUCCACAUCUACGAAUUCGUACCAUAGAGAGGUUAUCGCCUCACCGAGAUCGGAAGAGCACACGU

Molecular target: T1, EsCas13d, nuclease-dead
Assay: crRNA (strand 1, pre-loaded); Mg2+; 40 mM Tris-HCl pH 7.5, 150 mM NaCl, 6 mM MgCl2, 1 mM DTT, 0.1% Tween-20, 0.2 mg/ml BSA; 25 C; 10 min per concentration, then washed
Conditions: tags: His6-TwinStrep-SUMO cleaved; N-terminal SNAP kept (SNAP-Surface 488); label: 3' end held by stalled T7 RNA polymerase

Binder	Kd [nM]
B1	17.1 ± 1
B2	6.2 ± 0.4
B3	91 ± 20
B4	12.9 ± 1.2
B5	49 ± 8
B6	50 ± 6
B7	36 ± 4
B8	11.8 ± 0.4
B9	38 ± 4
B10	8.6 ± 0.7
B11	20.2 ± 1
B12	84 ± 31
B13	12.7 ± 0.6
B14	79 ± 28
B15	77 ± 32
B16	80 ± 40
B17	37.8 ± 2.4
B18	3.9 ± 0.34
B19	31.4 ± 1.6
B20	25.5 ± 2.8
B21	49 ± 5
B22	13.4 ± 1.1
B23	5.92 ± 0.27
B24	14.1 ± 0.5
B25	23.9 ± 2.4
B26	65 ± 11
B27	41 ± 6
B28	10.9 ± 0.6
